In the assay the target is HAVI-Fluc-bJun (basic leucine zipper region of Jun, 225-334) (human). Nature of the assay: pull-down; DLR-PD (dual luciferase reporter pull-down): both proteins co-expressed in HEK293; lysate in passive lysis buffer on Streptavidin MagneSphere Paramagnetic Particles in PBS, 30 m to 1 h, room temperature; two washes PBS with 1% Nonidet P 40, one with PBS; the biotinylated HAVI-tagged protein is held, Fluc and Rluc activity read on the beads; in some samples eYFP-MAVS or other activators (IRF3) or HCV NS3/4A (MAVS) co-expressed.
Sequence of HAVI-Fluc-bJun (basic leucine zipper region of Jun, 225-334) (human) (P05412 whole entry): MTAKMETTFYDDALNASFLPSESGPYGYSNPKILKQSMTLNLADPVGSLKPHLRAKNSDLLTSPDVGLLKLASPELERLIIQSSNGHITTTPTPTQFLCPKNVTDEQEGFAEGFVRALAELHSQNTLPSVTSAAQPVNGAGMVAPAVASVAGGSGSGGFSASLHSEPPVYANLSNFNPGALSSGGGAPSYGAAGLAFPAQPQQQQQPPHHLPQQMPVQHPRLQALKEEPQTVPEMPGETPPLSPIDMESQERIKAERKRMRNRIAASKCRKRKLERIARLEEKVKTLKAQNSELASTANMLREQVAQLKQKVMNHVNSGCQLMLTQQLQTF

Sequence of Rluc-bFos-Flag (basic leucine zipper region of Fos, 118-220) (P01100 other isoform, or with tags, fused parts or gaps): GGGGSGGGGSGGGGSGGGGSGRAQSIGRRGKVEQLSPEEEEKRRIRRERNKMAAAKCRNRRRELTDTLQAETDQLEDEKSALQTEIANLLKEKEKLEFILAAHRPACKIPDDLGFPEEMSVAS

As to “Rluc-bFos-Flag (basic leucine zipper region of Fos, 118-220) (from UniProt P01100 118-220) (domain or fragment)”, the activity ratio of Rluc/Fluc on the beads (Rluc/Fluc activity ratio) came to 1.7, the fold of the percentage of Rluc on beads over the three negative controls is more than 80 fold, the molar ratio of Rluc-bFos to HAVI-Fluc-bJun binding to the beads turned out to be 0.1 molar ratio and the percentage of Rluc on beads to lysate worked out at 4%.

The values above are taken from PMC3198426.
